Source: paper PMC10570040

T1: EnfR T55I (Thermococcus onnurineus NA1, UniProt B6YTS4 1-146, T55I)
T1 sequence: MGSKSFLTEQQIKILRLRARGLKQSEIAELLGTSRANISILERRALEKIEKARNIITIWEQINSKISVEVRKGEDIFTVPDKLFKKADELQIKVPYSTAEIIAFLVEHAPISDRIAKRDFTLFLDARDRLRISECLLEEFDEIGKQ

T2: EnfR wild-type (TON_1525) (Thermococcus onnurineus NA1, UniProt B6YTS4 1-146)
T2 sequence: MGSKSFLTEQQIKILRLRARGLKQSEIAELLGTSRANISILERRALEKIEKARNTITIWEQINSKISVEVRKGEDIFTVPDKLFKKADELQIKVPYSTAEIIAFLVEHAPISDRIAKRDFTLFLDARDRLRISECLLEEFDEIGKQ

T3: EnfR R44A (Thermococcus onnurineus NA1, UniProt B6YTS4 1-146, R44A)
T3 sequence: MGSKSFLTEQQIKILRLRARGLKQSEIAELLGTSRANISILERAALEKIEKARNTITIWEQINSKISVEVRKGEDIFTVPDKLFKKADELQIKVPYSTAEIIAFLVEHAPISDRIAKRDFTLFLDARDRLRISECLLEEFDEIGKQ


How the values were obtained:
EnfR T55I = target: T1, EnfR T55I; assay: ITC; 25 C; N = 0.80; EMSA: 10 mM Tris pH 7.4, 200 mM KCl, 2 mM DTT, 0.2 mM EDTA, 37 C 20 min; ITC: 10 mM Tris-HCl pH 7.4, 200 mM KCl, 1 mM TCEP, 0.2 mM EDTA, 25 C; footprint: 20 mM; conditions: protein: recombinant; tags: C-terminal His6, non-cleavable; chain copies: 2; blunt
[1] = target: T2, EnfR wild-type (TON_1525); assay: ITC; 25 C; N = 0.94; EMSA: 10 mM Tris pH 7.4, 200 mM KCl, 2 mM DTT, 0.2 mM EDTA, 37 C 20 min; ITC: 10 mM Tris-HCl pH 7.4, 200 mM KCl, 1 mM TCEP, 0.2 mM EDTA, 25 C; footprint: 20 mM; conditions: protein: recombinant; tags: C-terminal His6, non-cleavable; chain copies: 2; blunt
EnfR R44A = target: T3, EnfR R44A; assay: EMSA; seemed to lose binding; EMSA: 10 mM Tris pH 7.4, 200 mM KCl, 2 mM DTT, 0.2 mM EDTA, 37 C 20 min; ITC: 10 mM Tris-HCl pH 7.4, 200 mM KCl, 1 mM TCEP, 0.2 mM EDTA, 25 C; footprint: 20 mM; conditions: protein: recombinant; tags: C-terminal His6, non-cleavable; chain copies: 2; label: 5'-Cy5; blunt

Binder	Kd (EnfR T55I) [µM]	Kd [1] [µM]	binding result (EnfR R44A)
36-bp target, unlabelled (ITC) (dsDNA) DNA 1: CCATCTTAAAATCTTTTTGTTTACATTATACGAGGT DNA 2: ACCTCGTATAATGTAAACAAAAAGATTTTAAGATGG	0.948 ± 0.13	0.0618 ± 0.0205	
36-bp target, Cy5 (dsDNA) DNA 1: CCATCTTAAAATCTTTTTGTTTACATTATACGAGGT DNA 2: ACCTCGTATAATGTAAACAAAAAGATTTTAAGATGG			no binding
